Earlier results, collected in PMC11988861, “Step Enzymatic Hydrolysis and In Silico Screening-Assisted Preparation of Bioactive Peptides from Abalone” (Foods, 2025).

Target: ACE (Homo sapiens, UniProt P12821)
Design: method as in PMID 35323475
Details: literature ACEi peptides from skipjack tuna muscle

Chain of ACE (P12821 30-1306, species assumed): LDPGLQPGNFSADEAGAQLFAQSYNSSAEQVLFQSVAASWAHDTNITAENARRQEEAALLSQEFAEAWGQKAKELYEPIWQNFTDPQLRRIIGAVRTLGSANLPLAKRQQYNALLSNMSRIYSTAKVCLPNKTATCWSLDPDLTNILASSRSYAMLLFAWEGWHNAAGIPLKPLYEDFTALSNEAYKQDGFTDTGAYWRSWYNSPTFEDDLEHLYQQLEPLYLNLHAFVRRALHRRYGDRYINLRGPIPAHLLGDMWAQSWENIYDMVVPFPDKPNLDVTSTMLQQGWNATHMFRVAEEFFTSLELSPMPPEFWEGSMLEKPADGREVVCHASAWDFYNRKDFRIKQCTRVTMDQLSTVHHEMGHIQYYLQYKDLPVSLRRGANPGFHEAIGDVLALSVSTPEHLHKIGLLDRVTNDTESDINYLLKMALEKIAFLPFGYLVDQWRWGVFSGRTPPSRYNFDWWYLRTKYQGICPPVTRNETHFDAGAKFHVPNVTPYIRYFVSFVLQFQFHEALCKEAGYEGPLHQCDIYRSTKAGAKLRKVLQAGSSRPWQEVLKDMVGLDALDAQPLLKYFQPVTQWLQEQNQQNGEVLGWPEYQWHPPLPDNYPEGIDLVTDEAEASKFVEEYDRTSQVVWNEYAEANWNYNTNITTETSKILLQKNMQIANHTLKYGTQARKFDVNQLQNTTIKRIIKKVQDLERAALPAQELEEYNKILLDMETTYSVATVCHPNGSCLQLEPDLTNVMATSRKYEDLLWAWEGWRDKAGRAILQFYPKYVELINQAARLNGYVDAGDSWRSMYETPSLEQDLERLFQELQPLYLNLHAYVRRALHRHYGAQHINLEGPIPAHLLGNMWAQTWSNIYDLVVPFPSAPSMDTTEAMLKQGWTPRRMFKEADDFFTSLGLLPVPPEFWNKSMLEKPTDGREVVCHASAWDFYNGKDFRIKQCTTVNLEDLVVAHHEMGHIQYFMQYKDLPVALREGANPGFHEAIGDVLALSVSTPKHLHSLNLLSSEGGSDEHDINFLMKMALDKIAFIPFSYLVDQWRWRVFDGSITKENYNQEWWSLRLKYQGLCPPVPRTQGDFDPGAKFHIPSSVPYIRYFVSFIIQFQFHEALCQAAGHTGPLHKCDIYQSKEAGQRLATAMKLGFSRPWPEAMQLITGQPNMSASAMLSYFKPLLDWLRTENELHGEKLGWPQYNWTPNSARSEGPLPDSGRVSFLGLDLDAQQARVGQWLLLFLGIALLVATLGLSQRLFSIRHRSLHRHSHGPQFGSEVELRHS

ACEi IC50: 280 µg/mL
Substance: VDRYF
